Laboratory results: patent US20210388087A1 (Chugai, published 2021)

T1: Human CD3eg linker (human)
T1 construct: Single-chain construct; also called recombinant human CD3
T1 chain: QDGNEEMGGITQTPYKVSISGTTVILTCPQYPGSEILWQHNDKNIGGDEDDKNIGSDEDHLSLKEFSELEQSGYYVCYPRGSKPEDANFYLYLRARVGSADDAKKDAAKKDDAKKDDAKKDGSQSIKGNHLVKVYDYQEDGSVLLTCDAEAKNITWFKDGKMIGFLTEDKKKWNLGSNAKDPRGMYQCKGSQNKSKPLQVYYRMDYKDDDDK


Molecular target: T1, Human CD3eg linker
Assay: SPR; fold vs parent H183/L072

| Binder | fold change of affinity |
| --- | --- |
| H183/L072 VL S26A (antibody, name in Kabat numbering, V domains shown) VH: QVQLVESGGGLVQPGRSLRLSCAASGFTFSNAWMHWVRQAPGKGLEWVAQIKDKGNAYAAYYAPSVKGRFTISRDDSKNSIYLQMNSLKTEDTAVYYCHYVHYASASTVLPAFGVDAWGQGTTVTVSS VL: DIVMTQSPLSLPVTPGEPASISCQAAQELVHMNRNTYLHWYQQKPGQAPRLLIYKVSNRFPGVPDRFSGSGSGTDFTLKISRVEAEDVGVYYCAQGTSVPFTFGQGTKLEIK | 0.8 fold |
| H183/L072 VL A25E (antibody, name in Kabat numbering, V domains shown) VH: QVQLVESGGGLVQPGRSLRLSCAASGFTFSNAWMHWVRQAPGKGLEWVAQIKDKGNAYAAYYAPSVKGRFTISRDDSKNSIYLQMNSLKTEDTAVYYCHYVHYASASTVLPAFGVDAWGQGTTVTVSS VL: DIVMTQSPLSLPVTPGEPASISCQESQELVHMNRNTYLHWYQQKPGQAPRLLIYKVSNRFPGVPDRFSGSGSGTDFTLKISRVEAEDVGVYYCAQGTSVPFTFGQGTKLEIK | 0 fold |
| H183/L072 VL A25D (antibody, name in Kabat numbering, V domains shown) VH: QVQLVESGGGLVQPGRSLRLSCAASGFTFSNAWMHWVRQAPGKGLEWVAQIKDKGNAYAAYYAPSVKGRFTISRDDSKNSIYLQMNSLKTEDTAVYYCHYVHYASASTVLPAFGVDAWGQGTTVTVSS VL: DIVMTQSPLSLPVTPGEPASISCQDSQELVHMNRNTYLHWYQQKPGQAPRLLIYKVSNRFPGVPDRFSGSGSGTDFTLKISRVEAEDVGVYYCAQGTSVPFTFGQGTKLEIK | 0 fold |

These binders were tested against T2, Human CD137 ECD (human) (assay: Biacore SPR, vs parent H183/L072).
T2 construct: entry includes C-terminal His-tag and biotin acceptor peptide; also called human CD137 extracellular domain; 4-1BB
T2 sequence (chain, as listed by the source limits assumed): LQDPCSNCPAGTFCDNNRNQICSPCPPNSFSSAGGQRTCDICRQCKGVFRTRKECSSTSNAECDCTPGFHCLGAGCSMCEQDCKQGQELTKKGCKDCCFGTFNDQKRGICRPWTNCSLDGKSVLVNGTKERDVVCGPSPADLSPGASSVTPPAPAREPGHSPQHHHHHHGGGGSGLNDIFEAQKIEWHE

| Binder | fold change of affinity |
| --- | --- |
| H183/L072 VL V94Q (antibody, name in Kabat numbering, V domains shown, Dual-Ig) VH: QVQLVESGGGLVQPGRSLRLSCAASGFTFSNAWMHWVRQAPGKGLEWVAQIKDKGNAYAAYYAPSVKGRFTISRDDSKNSIYLQMNSLKTEDTAVYYCHYVHYASASTVLPAFGVDAWGQGTTVTVSS VL: DIVMTQSPLSLPVTPGEPASISCQASQELVHMNRNTYLHWYQQKPGQAPRLLIYKVSNRFPGVPDRFSGSGSGTDFTLKISRVEAEDVGVYYCAQGTSQPFTFGQGTKLEIK | 0.8 fold |
| H183/L072 VL Y32F (antibody, name in Kabat numbering, V domains shown, Dual-Ig) VH: QVQLVESGGGLVQPGRSLRLSCAASGFTFSNAWMHWVRQAPGKGLEWVAQIKDKGNAYAAYYAPSVKGRFTISRDDSKNSIYLQMNSLKTEDTAVYYCHYVHYASASTVLPAFGVDAWGQGTTVTVSS VL: DIVMTQSPLSLPVTPGEPASISCQASQELVHMNRNTFLHWYQQKPGQAPRLLIYKVSNRFPGVPDRFSGSGSGTDFTLKISRVEAEDVGVYYCAQGTSVPFTFGQGTKLEIK | 1.7 fold |
| H183/L072 VL Y32M (antibody, name in Kabat numbering, V domains shown, Dual-Ig) VH: QVQLVESGGGLVQPGRSLRLSCAASGFTFSNAWMHWVRQAPGKGLEWVAQIKDKGNAYAAYYAPSVKGRFTISRDDSKNSIYLQMNSLKTEDTAVYYCHYVHYASASTVLPAFGVDAWGQGTTVTVSS VL: DIVMTQSPLSLPVTPGEPASISCQASQELVHMNRNTMLHWYQQKPGQAPRLLIYKVSNRFPGVPDRFSGSGSGTDFTLKISRVEAEDVGVYYCAQGTSVPFTFGQGTKLEIK | 0 fold |
| H183/L072 VL V94S (antibody, name in Kabat numbering, V domains shown, Dual-Ig) VH: QVQLVESGGGLVQPGRSLRLSCAASGFTFSNAWMHWVRQAPGKGLEWVAQIKDKGNAYAAYYAPSVKGRFTISRDDSKNSIYLQMNSLKTEDTAVYYCHYVHYASASTVLPAFGVDAWGQGTTVTVSS VL: DIVMTQSPLSLPVTPGEPASISCQASQELVHMNRNTYLHWYQQKPGQAPRLLIYKVSNRFPGVPDRFSGSGSGTDFTLKISRVEAEDVGVYYCAQGTSSPFTFGQGTKLEIK | 0 fold |
| H183/L072 VL Y32W (antibody, name in Kabat numbering, V domains shown, Dual-Ig) VH: QVQLVESGGGLVQPGRSLRLSCAASGFTFSNAWMHWVRQAPGKGLEWVAQIKDKGNAYAAYYAPSVKGRFTISRDDSKNSIYLQMNSLKTEDTAVYYCHYVHYASASTVLPAFGVDAWGQGTTVTVSS VL: DIVMTQSPLSLPVTPGEPASISCQASQELVHMNRNTWLHWYQQKPGQAPRLLIYKVSNRFPGVPDRFSGSGSGTDFTLKISRVEAEDVGVYYCAQGTSVPFTFGQGTKLEIK | 0.7 fold |
| H183/L072 VL V94R (antibody, name in Kabat numbering, V domains shown, Dual-Ig) VH: QVQLVESGGGLVQPGRSLRLSCAASGFTFSNAWMHWVRQAPGKGLEWVAQIKDKGNAYAAYYAPSVKGRFTISRDDSKNSIYLQMNSLKTEDTAVYYCHYVHYASASTVLPAFGVDAWGQGTTVTVSS VL: DIVMTQSPLSLPVTPGEPASISCQASQELVHMNRNTYLHWYQQKPGQAPRLLIYKVSNRFPGVPDRFSGSGSGTDFTLKISRVEAEDVGVYYCAQGTSRPFTFGQGTKLEIK | 0.4 fold |
| H183/L072 VL Y32A (antibody, name in Kabat numbering, V domains shown, Dual-Ig) VH: QVQLVESGGGLVQPGRSLRLSCAASGFTFSNAWMHWVRQAPGKGLEWVAQIKDKGNAYAAYYAPSVKGRFTISRDDSKNSIYLQMNSLKTEDTAVYYCHYVHYASASTVLPAFGVDAWGQGTTVTVSS VL: DIVMTQSPLSLPVTPGEPASISCQASQELVHMNRNTALHWYQQKPGQAPRLLIYKVSNRFPGVPDRFSGSGSGTDFTLKISRVEAEDVGVYYCAQGTSVPFTFGQGTKLEIK | 0.1 fold |
| H183/L072 VL Y32H (antibody, name in Kabat numbering, V domains shown, Dual-Ig) VH: QVQLVESGGGLVQPGRSLRLSCAASGFTFSNAWMHWVRQAPGKGLEWVAQIKDKGNAYAAYYAPSVKGRFTISRDDSKNSIYLQMNSLKTEDTAVYYCHYVHYASASTVLPAFGVDAWGQGTTVTVSS VL: DIVMTQSPLSLPVTPGEPASISCQASQELVHMNRNTHLHWYQQKPGQAPRLLIYKVSNRFPGVPDRFSGSGSGTDFTLKISRVEAEDVGVYYCAQGTSVPFTFGQGTKLEIK | 0.1 fold |
| H183/L072 VL V94W (antibody, name in Kabat numbering, V domains shown, Dual-Ig) VH: QVQLVESGGGLVQPGRSLRLSCAASGFTFSNAWMHWVRQAPGKGLEWVAQIKDKGNAYAAYYAPSVKGRFTISRDDSKNSIYLQMNSLKTEDTAVYYCHYVHYASASTVLPAFGVDAWGQGTTVTVSS VL: DIVMTQSPLSLPVTPGEPASISCQASQELVHMNRNTYLHWYQQKPGQAPRLLIYKVSNRFPGVPDRFSGSGSGTDFTLKISRVEAEDVGVYYCAQGTSWPFTFGQGTKLEIK | 0 fold |
| H183/L072 VL Y32N (antibody, name in Kabat numbering, V domains shown, Dual-Ig) VH: QVQLVESGGGLVQPGRSLRLSCAASGFTFSNAWMHWVRQAPGKGLEWVAQIKDKGNAYAAYYAPSVKGRFTISRDDSKNSIYLQMNSLKTEDTAVYYCHYVHYASASTVLPAFGVDAWGQGTTVTVSS VL: DIVMTQSPLSLPVTPGEPASISCQASQELVHMNRNTNLHWYQQKPGQAPRLLIYKVSNRFPGVPDRFSGSGSGTDFTLKISRVEAEDVGVYYCAQGTSVPFTFGQGTKLEIK | 0.2 fold |
| H183/L072 VL V94T (antibody, name in Kabat numbering, V domains shown, Dual-Ig) VH: QVQLVESGGGLVQPGRSLRLSCAASGFTFSNAWMHWVRQAPGKGLEWVAQIKDKGNAYAAYYAPSVKGRFTISRDDSKNSIYLQMNSLKTEDTAVYYCHYVHYASASTVLPAFGVDAWGQGTTVTVSS VL: DIVMTQSPLSLPVTPGEPASISCQASQELVHMNRNTYLHWYQQKPGQAPRLLIYKVSNRFPGVPDRFSGSGSGTDFTLKISRVEAEDVGVYYCAQGTSTPFTFGQGTKLEIK | 0.4 fold |
| H183/L072 VL Y32Q (antibody, name in Kabat numbering, V domains shown, Dual-Ig) VH: QVQLVESGGGLVQPGRSLRLSCAASGFTFSNAWMHWVRQAPGKGLEWVAQIKDKGNAYAAYYAPSVKGRFTISRDDSKNSIYLQMNSLKTEDTAVYYCHYVHYASASTVLPAFGVDAWGQGTTVTVSS VL: DIVMTQSPLSLPVTPGEPASISCQASQELVHMNRNTQLHWYQQKPGQAPRLLIYKVSNRFPGVPDRFSGSGSGTDFTLKISRVEAEDVGVYYCAQGTSVPFTFGQGTKLEIK | 0.2 fold |
| H183/L072 VL Y32G (antibody, name in Kabat numbering, V domains shown, Dual-Ig) VH: QVQLVESGGGLVQPGRSLRLSCAASGFTFSNAWMHWVRQAPGKGLEWVAQIKDKGNAYAAYYAPSVKGRFTISRDDSKNSIYLQMNSLKTEDTAVYYCHYVHYASASTVLPAFGVDAWGQGTTVTVSS VL: DIVMTQSPLSLPVTPGEPASISCQASQELVHMNRNTGLHWYQQKPGQAPRLLIYKVSNRFPGVPDRFSGSGSGTDFTLKISRVEAEDVGVYYCAQGTSVPFTFGQGTKLEIK | 0.1 fold |
| H183/L072 VL Y32V (antibody, name in Kabat numbering, V domains shown, Dual-Ig) VH: QVQLVESGGGLVQPGRSLRLSCAASGFTFSNAWMHWVRQAPGKGLEWVAQIKDKGNAYAAYYAPSVKGRFTISRDDSKNSIYLQMNSLKTEDTAVYYCHYVHYASASTVLPAFGVDAWGQGTTVTVSS VL: DIVMTQSPLSLPVTPGEPASISCQASQELVHMNRNTVLHWYQQKPGQAPRLLIYKVSNRFPGVPDRFSGSGSGTDFTLKISRVEAEDVGVYYCAQGTSVPFTFGQGTKLEIK | 0 fold |
| H183/L072 VL Y32P (antibody, name in Kabat numbering, V domains shown, Dual-Ig) VH: QVQLVESGGGLVQPGRSLRLSCAASGFTFSNAWMHWVRQAPGKGLEWVAQIKDKGNAYAAYYAPSVKGRFTISRDDSKNSIYLQMNSLKTEDTAVYYCHYVHYASASTVLPAFGVDAWGQGTTVTVSS VL: DIVMTQSPLSLPVTPGEPASISCQASQELVHMNRNTPLHWYQQKPGQAPRLLIYKVSNRFPGVPDRFSGSGSGTDFTLKISRVEAEDVGVYYCAQGTSVPFTFGQGTKLEIK | 0 fold |
| H183/L072 VL Y32I (antibody, name in Kabat numbering, V domains shown, Dual-Ig) VH: QVQLVESGGGLVQPGRSLRLSCAASGFTFSNAWMHWVRQAPGKGLEWVAQIKDKGNAYAAYYAPSVKGRFTISRDDSKNSIYLQMNSLKTEDTAVYYCHYVHYASASTVLPAFGVDAWGQGTTVTVSS VL: DIVMTQSPLSLPVTPGEPASISCQASQELVHMNRNTILHWYQQKPGQAPRLLIYKVSNRFPGVPDRFSGSGSGTDFTLKISRVEAEDVGVYYCAQGTSVPFTFGQGTKLEIK | 0 fold |
| H183/L072 VL Y32L (antibody, name in Kabat numbering, V domains shown, Dual-Ig) VH: QVQLVESGGGLVQPGRSLRLSCAASGFTFSNAWMHWVRQAPGKGLEWVAQIKDKGNAYAAYYAPSVKGRFTISRDDSKNSIYLQMNSLKTEDTAVYYCHYVHYASASTVLPAFGVDAWGQGTTVTVSS VL: DIVMTQSPLSLPVTPGEPASISCQASQELVHMNRNTLLHWYQQKPGQAPRLLIYKVSNRFPGVPDRFSGSGSGTDFTLKISRVEAEDVGVYYCAQGTSVPFTFGQGTKLEIK | 0.2 fold |
